The values below come from the Immune Epitope Database (IEDB).

Among the targets are HLA-B*15:01; HLA-B*07:02; HLA-B*51:01; HLA-A*23:01; HLA-A*24:02; HLA-A*30:01; HLA-A*01:01; HLA-A*26:01; HLA-A*29:02; HLA-A*30:02.
Test in all cases: IEDB peptide-MHC binding, purified MHC/competitive/radioactivity; filed as Kd, often an IC50 or EC50 that approximates it; ≥ and ≤ were set here for values at or beyond the usual limits of such assays
Another test has as its target HLA-B*08:01. The following applies: source organism: Vaccinia virus WR.
The target of a further test is HLA-A*02:02. The note with it: source organism: Vaccinia virus WR.
A further test deals with HLA-A*02:03. The note with it: source organism: Vaccinia virus WR.
The target of a further test is HLA-A*02:06. The following applies: source organism: Vaccinia virus WR.
For a further test, the target named is HLA-A*32:01. The note with it: source organism: Mammarenavirus guanaritoense.
The mark [1] stands for this setting: source organism: Vaccinia virus WR.
The mark [2] stands for this setting: source organism: Dengue virus 4 Philippines/H241/1956.
Setting [3] is: source organism: Dengue virus 1 Brazil/97-11/1997.
Where [4] appears, read: source organism: Dengue virus 2 Jamaica/1409/1983.
The mark [5] stands for this setting: source organism: SARS coronavirus Tor2.
The mark [6] stands for this setting: source organism: Mammarenavirus guanaritoense.

LIKVLVEHG: the equilibrium dissociation constant (Kd) with HLA-B*15:01 (setting [1]) worked out at 621 nM.
Take LVSLLGSAL: in the test with HLA-B*07:02 (setting [2]), the Kd was found to be 44.3 nM.
For the sequence SPIINRKGKV, the Kd in the test with HLA-B*07:02 (setting [2]) is 248 nM; with HLA-B*51:01 (setting [2]), no less than 69600 nM.
With RPVKEKEENL, the dissociation constant (Kd) with HLA-B*07:02 (setting [3]) was determined as 761 nM.
As to GINKRSTPF, the Kd in the test with HLA-B*15:01 (source organism: Vaccinia virus Copenhagen) is 0.723 nM.
In the case of QLNQLSKSEF, the Kd in the test with HLA-B*15:01 (setting [3]) turned out to be 73.1 nM.
With LLFVCISYY, the Kd with HLA-B*15:01 (setting [1]) was no less than 78100 nM.
As for QPHWIAASII, the dissociation constant (Kd) in the test with HLA-B*07:02 (setting [4]) was determined as 47.5 nM; in the test with HLA-B*51:01 (setting [4]), 468 nM.
As to AMVLSIVSLF, the dissociation constant (Kd) in the test with HLA-A*23:01 (setting [3]) came out at 15.1 nM; with HLA-A*24:02 (setting [3]), 580 nM; with HLA-B*15:01 (setting [3]), 4.66 nM.
For FLYSFFLCI, the values for the Kd with HLA-B*08:01 and with HLA-B*15:01 (setting [1]) were 5810 nM and 1170 nM, respectively.
In the case of RIRNKFMFI, the results for the Kd in the test with HLA-A*30:01 (setting [1]), with HLA-B*08:01 and with HLA-B*15:01 (setting [1]) were 0.0693 nM, 1.58 nM and 766 nM, respectively.
As to SVIFYFISI, the Kd with HLA-A*02:02 worked out at 155 nM; in the test with HLA-A*02:03 it was 75 nM; in the test with HLA-A*02:06, 0.169 nM; with HLA-B*15:01 (setting [1]), 335 nM.
Take NYLRKRVMF: the Kd with HLA-A*01:01 (setting [5]) was no less than 78100 nM; with HLA-A*23:01 (setting [5]), 11200 nM; with HLA-A*24:02 (setting [5]), 18000 nM; with HLA-A*26:01 (setting [5]), no less than 60200 nM; with HLA-A*29:02 (setting [5]), 3270 nM; with HLA-A*30:02 (setting [5]) it was 9150 nM.
In the case of ASITAFKSM, the Kd with HLA-B*15:01 (setting [1]) is 25 nM.
KAFKKFPSG: the Kd with HLA-A*30:01 (setting [1]) came to 247 nM; with HLA-B*15:01 (setting [1]) it was 2990 nM.
LFARTRSMW: the Kd with HLA-A*01:01 (setting [5]) was no less than 78100 nM; with HLA-A*23:01 (setting [5]), 488 nM; with HLA-A*24:02 (setting [5]), 146 nM; with HLA-A*26:01 (setting [5]) it was no less than 77900 nM; with HLA-A*29:02 (setting [5]), 10200 nM; with HLA-A*30:02 (setting [5]) it was no less than 83300 nM.
Regarding SSSPTILDNY, the dissociation constant (Kd) in the test with HLA-A*01:01 (setting [6]) is 22.6 nM; with HLA-A*26:01 (setting [6]), 17800 nM; in the test with HLA-A*29:02 (setting [6]), 99 nM; in the test with HLA-A*30:01 (setting [6]), no less than 21000 nM; with HLA-A*30:02 (setting [6]), 42.5 nM; with HLA-A*32:01, no less than 69900 nM.
For the sequence EDAQPGLLSY, the dissociation constant (Kd) is no less than 70400 nM with HLA-A*01:01 (setting [6]); no less than 70000 nM with HLA-A*23:01 (setting [6]); no less than 70300 nM in the test with HLA-A*24:02 (setting [6]); no less than 25800 nM with HLA-A*26:01 (setting [6]); 8210 nM with HLA-A*29:02 (setting [6]); 17600 nM with HLA-A*30:02 (setting [6]).
Consider YICILINHG, for which the Kd with HLA-B*15:01 (setting [1]) amounted to 813 nM.
In the case of SPAAAQKATL, the Kd with HLA-B*07:02 (setting [2]) was 3.95 nM.
Take PTMEIEDQEY: the dissociation constant Kd with HLA-A*01:01 (setting [6]) is 17.2 nM; with HLA-A*26:01 (setting [6]), 1140 nM; with HLA-A*29:02 (setting [6]), 11300 nM; in the test with HLA-A*30:01 (setting [6]) it was no less than 70400 nM; in the test with HLA-A*30:02 (setting [6]), 8840 nM; in the test with HLA-A*32:01, no less than 49800 nM.
SPNPTIEAGR: the Kd with HLA-B*07:02 (setting [4]) stood at 1400 nM.
For KQEHETSWHY, the Kd with HLA-A*30:02 (setting [4]) was no less than 69700 nM; in the test with HLA-B*15:01 (setting [4]), 125 nM.
KAAKRISHG: the Kd with HLA-B*15:01 (setting [1]) is 7690 nM.
Turning to SPAAAQKAT, the equilibrium dissociation constant (Kd) with HLA-B*07:02 (setting [2]) came out at 14.3 nM.
Consider LLSPVRVPNY, for which the Kd was 15100 nM with HLA-A*01:01 (setting [4]), 306 nM with HLA-A*30:02 (setting [4]) and 2.99 nM in the test with HLA-B*15:01 (setting [4]).
Regarding GSIIQFPNTY, the Kd in the test with HLA-A*01:01 (setting [5]) is 1050 nM; with HLA-A*23:01 (setting [5]) it was no less than 70000 nM; with HLA-A*24:02 (setting [5]) it was no less than 70300 nM; with HLA-A*26:01 (setting [5]) it was 1880 nM; with HLA-A*29:02 (setting [5]) it was 462 nM; with HLA-A*30:02 (setting [5]), 545 nM.
As to KLNQLSRKEF, the Kd with HLA-B*15:01 (source organism: Dengue virus 3 Martinique/1243/1999) came out at 70.6 nM.
Regarding FFVYENAFL, the Kd is no less than 78100 nM in the test with HLA-A*01:01 (setting [5]); 6780 nM in the test with HLA-A*23:01 (setting [5]); 9050 nM with HLA-A*24:02 (setting [5]); no less than 32700 nM with HLA-A*26:01 (setting [5]); no less than 107000 nM with HLA-A*29:02 (setting [5]); no less than 96800 nM with HLA-A*30:02 (setting [5]).
